In patent US20210318312:

Experiments:
H3 K9 Lipoyl peptide = target: T1, H3 K9 Lipoyl peptide
T1 chain: KQTARKSTGGWW

[1] = target: T2, lipoyl-modified PDHX peptide
T2 chain: EIETDKAVVTWW

DLAT K259 Acetyl peptide = target: T3, DLAT K259 Acetyl peptide
T3 chain: EIETDKATIGW

H3 K9 Acetyl peptide = target: T4, H3 K9 Acetyl peptide
T4 chain: KQTARKSTGGWW

[2] = target: T5, lipoyl-modified DLAT peptide of the LC-MS deacylation assay
T5 chain: EIETDKATIGWW

[3] = target: purified porcine heart pyruvate dehydrogenase (Sigma-Aldrich, cat. #P7032)
H3 K9 Biotinyl peptide = target: T6, H3 K9 Biotinyl peptide
T6 chain: KQTARKSTGGWW

DLAT K259 Lipoyl peptide = target: T7, DLAT K259 Lipoyl peptide
T7 chain: EIETDKATIGWW

B1: recombinant SIRT4 (N-terminally truncated human Sirt4, 33-314 of SEQ ID NO: 2) (protein)
chain: VPASPPLDPEKVKELQRFITLSKRLLVMTGAGISTESGIPDYRSEKVGLYARTDRRPIQHGDFVRSAPIRQRYWARNFVGWPQFSSHQPNPAHWALSTWEKLGKLYWLVTQNVDALHTKAGSRRLTELHGCMDRVLCLDCGEQTPRGVLQERFQVLNPTWSAEAHGLAPDGDVFLSEEQVRSFQVPTCVQCGGHLKPDVVFFGDTVNPDKVDFVHKRVKEADSLLVVGSSLQVYSGYRFILTAWEKKLPIAILNIGPTRSDDLACLKLNSRCGELLPLIDPC
Km (H3 K9 Lipoyl peptide): 814 µM | LC-MS-based deacylation assay, hydrolysis of the acyl-lysine modification (H3 K9 Lipoyl peptide): SIRT4 was able to hydrolyze all three modifications | catalytic efficiency, fold (another experiment) (H3 K9 Lipoyl peptide): lipoyl (28-fold) | catalytic efficiency, fold against acetylated H3K9 (H3 K9 Lipoyl peptide): lipoyl (SEQ ID NO: 3 (30-fold) | kcat (H3 K9 Lipoyl peptide): 0.0019 s⁻¹ | kcat/Km (H3 K9 Lipoyl peptide): 2.3 s^-1M^-1 | relative amount of unmodified product generated using 5 µM SIRT4 (H3 K9 Lipoyl peptide): 11% (lipoyl-SEQ ID NO: 3) | proportion of unmodified peptide generated following reaction [1]: 42% for PDHX (SEQ ID NO: 13) | Km (DLAT K259 Acetyl peptide): ND* (>2500) | catalytic efficiency, fold lower than DLAT lipoyl (DLAT K259 Acetyl peptide): this efficiency was still 38-fold lower than DLAT lipoyl | kcat (DLAT K259 Acetyl peptide): 0.0011 s⁻¹ | kcat/Km (DLAT K259 Acetyl peptide): 0.2 s^-1M^-1 | Km (H3 K9 Acetyl peptide): ND* (>2500) | LC-MS-based deacylation assay, hydrolysis of the acyl-lysine modification (H3 K9 Acetyl peptide): SIRT4 was able to hydrolyze all three modifications | kcat/Km (H3 K9 Acetyl peptide): 0.083 s^-1M^-1 | relative amount of unmodified product generated using 5 µM SIRT4 (H3 K9 Acetyl peptide): 0.3% (acetyl-SEQ ID NO: 3) | proportion of unmodified peptide generated following reaction [2]: increased to 33% for DLAT (SEQ ID NO: 11) | PDH activity, immuno-capture colorimetric assay [3]: only active SIRT4 was able to attenuate PDH activity | Km (H3 K9 Biotinyl peptide): 719 µM | LC-MS-based deacylation assay, hydrolysis of the acyl-lysine modification (H3 K9 Biotinyl peptide): SIRT4 was able to hydrolyze all three modifications | catalytic efficiency, fold (another experiment) (H3 K9 Biotinyl peptide): biotinyl (9-fold) | catalytic efficiency, fold against acetylated H3K9 (H3 K9 Biotinyl peptide): biotinyl (SEQ ID NO: 4) (11-fold) | kcat (H3 K9 Biotinyl peptide): 0.0005 s⁻¹ | kcat/Km (H3 K9 Biotinyl peptide): 0.74 s^-1M^-1 | relative amount of unmodified product generated using 5 µM SIRT4 (H3 K9 Biotinyl peptide): 3% (biotinyl-SEQ ID NO: 4) | Km (MCD K471 Acetyl peptide): ND (>2500) | kcat/Km (MCD K471 Acetyl peptide): 0.0064 s^-1M^-1 | Km (DLAT K259 Lipoyl peptide): 239 µM | catalytic efficiency, fold against H3K9 lipoyl (DLAT K259 Lipoyl peptide): 3.5-fold increased efficiency compared to H3K9 lipoyl | catalytic efficiency, fold against H3K9 lipoyl (another experiment) (DLAT K259 Lipoyl peptide): 3.3-fold increase in efficiency compared to H3K9 lipoyl | catalytic efficiency, fold against deacetylation of MCD (DLAT K259 Lipoyl peptide): ˜1270-fold more efficient at hydrolyzing the DLAT lipoamide | kcat (DLAT K259 Lipoyl peptide): 0.0016 s⁻¹ | kcat/Km (DLAT K259 Lipoyl peptide): 7.65 s^-1M^-1

B2: recombinant SIRT4 H161Y catalytic mutant (protein)
chain: VPASPPLDPEKVKELQRFITLSKRLLVMTGAGISTESGIPDYRSEKVGLYARTDRRPIQHGDFVRSAPIRQRYWARNFVGWPQFSSHQPNPAHWALSTWEKLGKLYWLVTQNVDALHTKAGSRRLTELYGCMDRVLCLDCGEQTPRGVLQERFQVLNPTWSAEAHGLAPDGDVFLSEEQVRSFQVPTCVQCGGHLKPDVVFFGDTVNPDKVDFVHKRVKEADSLLVVGSSLQVYSGYRFILTAWEKKLPIAILNIGPTRSDDLACLKLNSRCGELLPLIDPC
LC-MS-based deacylation assay (H3 K9 Lipoyl peptide): observed no significant activity for any of these substrates | LC-MS-based deacylation assay (H3 K9 Acetyl peptide): observed no significant activity for any of these substrates | PDH activity, immuno-capture colorimetric assay [3]: only active SIRT4 was able to attenuate PDH activity | LC-MS-based deacylation assay (H3 K9 Biotinyl peptide): observed no significant activity for any of these substrates

B3: recombinant SIRT3 (Sigma, cat. #SRP0117-100UG) (protein)
chain: ISFSVGASSVVGSGGSSDKGKLSLQDVAELIRARACQRVVVMVGAGISTPSGIPDFRSPGSGLYSNLQQYDLPYPEAIFELPFFFHNPKPFFTLAKELYPGNYKPNVTHYFLRLLHDKGLLLRLYTQNIDGLERVSGIPASKLVEAHGTFASATCTVCQRPFPGEDIRADVMADRVPRCPVCTGVVKPDIVFFGEPLPQRFLLHVVDFPMADLLLILGTSLEVEPFASLTEAVRSSVPRLLINRDLVGPLAWHPRSRDVAQLGDVVHGVESLVELLGWTEEMRDLVQRETGKLDGPDK
catalytic efficiency, fold lower than for DLAT acetyl (DLAT K259 Lipoyl peptide): this efficiency was 13-fold lower than for DLAT acetyl | in vitro deacylation kinetics (DLAT K259 Lipoyl peptide): SIRT3 showed some enzymatic activity towards DLAT lipoyl
